Here are results for twelve substances from patent publication US5985599.

Assay [1] addresses dimeric human IgG1 (myeloma protein, chemically cross-linked) (human) [IgG part: P01857]. Kind of assay: direct binding of 125I-dimeric human IgG1 to transfected COS-7 cells.
Assay [2] has the same target. Kind of assay: direct binding of 125I-dimeric hIgG1 to transfected COS-7 cells, corrected for expression.
The target in assay [3] is mouse beta1 Fc(gamma)R encoded by pFc113 (mouse). Kind of assay: sheep anti-mouse Ig rosetting on the cells of Table 5.

In assay [1], FcγRII Phe160-Ala (receptor) gave a Ka of 1e+07 M⁻¹ and a fold increase of binding over wild-type FcγRII of 10 fold.
As for FcγRII Leu115-Ala (receptor), the percent binding compared to wild-type FcγRII (percent of wild-type) in assay [2] stood at 20.6.
The substance “human FcγRII (wild-type FcγRIIa) encoded by HFc3.0 (receptor)” came in with a Ka in assay [1] of 1e+06 M⁻¹.
Take FcγRII Pro114-Ala (receptor): the percent binding compared to wild-type FcγRII (percent of wild-type) in assay [2] came to 53.5.
Regarding FcγRII Arg/His131-Ala (receptor), in assay [2], the percent binding compared to wild-type FcγRII (percent of wild-type) was 21.9 and the percent decrease of hIgG1-dimer binding worked out at 80%.
As for FcγRII Lys113-Ala (receptor), the percent binding compared to wild-type FcγRII (percent of wild-type) in assay [2] is 15.9.
In the case of “irrelevant antibody (background control of Table 5)”, the % rosette formation (background) in assay [3] is under 5%.
FcγRII Pro134-Ala (receptor) showed a percent binding compared to wild-type FcγRII (percent of wild-type) in assay [2] of 134.
In assay [1], FcγRII Leu159-Ala (receptor) had a Ka of 1e+07 M⁻¹ and a fold increase of binding over wild-type FcγRII of 10 fold.
FcγRII Val116-Ala (receptor) yielded a percent binding compared to wild-type FcγRII (percent of wild-type) in assay [2] of 73.5.
Substance FcγRII Asp133-Ala (receptor) returned a percent binding compared to wild-type FcγRII (percent of wild-type) in assay [2] of 114.
With FcγRII Phe129-Ala (receptor), in assay [2], the percent binding compared to wild-type FcγRII (percent of wild-type) is 8.2 and the percent decrease of hIgG1-dimer binding was over 90%.
